Test results taken from patent publication US20240025992A1 (Janssen / Centocor, published 2024).
Like-named read-outs stand apart in the source and are kept apart here. Each block holds one binder with its values, some of them ahead of it.

Assays:
[1] = target: T1, human DLL3 on DLL3+ tumor cells (human, UniProt Q9NYJ7 27-618); assay: cell-based or functional assay
T1 sequence: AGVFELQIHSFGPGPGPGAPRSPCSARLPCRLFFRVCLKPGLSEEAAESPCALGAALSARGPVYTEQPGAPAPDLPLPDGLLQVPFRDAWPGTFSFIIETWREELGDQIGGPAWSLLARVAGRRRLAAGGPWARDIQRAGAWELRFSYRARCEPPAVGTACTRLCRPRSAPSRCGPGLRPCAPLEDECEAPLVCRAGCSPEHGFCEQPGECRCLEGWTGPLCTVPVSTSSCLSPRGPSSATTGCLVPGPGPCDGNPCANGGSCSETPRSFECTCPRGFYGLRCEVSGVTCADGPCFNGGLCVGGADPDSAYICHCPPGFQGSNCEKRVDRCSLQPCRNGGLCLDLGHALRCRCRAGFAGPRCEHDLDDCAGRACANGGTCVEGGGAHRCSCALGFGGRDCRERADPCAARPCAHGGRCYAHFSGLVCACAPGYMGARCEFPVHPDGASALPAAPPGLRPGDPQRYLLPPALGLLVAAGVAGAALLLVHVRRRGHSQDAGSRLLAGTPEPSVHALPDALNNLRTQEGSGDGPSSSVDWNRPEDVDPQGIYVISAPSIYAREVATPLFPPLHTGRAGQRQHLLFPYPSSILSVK

[2] = target: T2, recombinant human DLL3 (Example 9, construct not named) (human, UniProt Q9NYJ7 27-492, limits assumed); assay: SPR (Biacore T200), antibody captured by goat anti-Fc on a C1 chip, DLL3 titrated
T2 construct: also called DLL3 antigen
T2 sequence: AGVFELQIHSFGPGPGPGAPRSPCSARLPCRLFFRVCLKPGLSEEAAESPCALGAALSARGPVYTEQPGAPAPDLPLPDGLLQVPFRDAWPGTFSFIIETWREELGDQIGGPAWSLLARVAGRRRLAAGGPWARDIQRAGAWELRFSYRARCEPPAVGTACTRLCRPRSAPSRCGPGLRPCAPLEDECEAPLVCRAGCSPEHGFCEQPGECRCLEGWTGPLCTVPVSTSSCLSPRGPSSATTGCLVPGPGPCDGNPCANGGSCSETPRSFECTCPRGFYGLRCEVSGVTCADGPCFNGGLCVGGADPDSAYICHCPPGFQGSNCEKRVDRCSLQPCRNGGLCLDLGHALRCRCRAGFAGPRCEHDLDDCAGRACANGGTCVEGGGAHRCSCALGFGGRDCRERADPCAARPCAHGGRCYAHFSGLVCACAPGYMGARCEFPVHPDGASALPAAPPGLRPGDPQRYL

[3] = target: T2, recombinant human DLL3 (Example 9, …); assay: as above; remark: listed apart in the source
[4] = target: T3, human CD3 (CD3 epsilon as part of the T cell receptor complex) on cells (human, UniProt P07766 23-207); assay: flow cytometry on human T cells (sheet title 'T cells', GEO Mean against concentration; assay as told in p-1138)
T3 construct: also called CD3 on Jurkat cells; CD3 on human pan T cells
T3 sequence (P07766 23-207 limits assumed, one chain of several): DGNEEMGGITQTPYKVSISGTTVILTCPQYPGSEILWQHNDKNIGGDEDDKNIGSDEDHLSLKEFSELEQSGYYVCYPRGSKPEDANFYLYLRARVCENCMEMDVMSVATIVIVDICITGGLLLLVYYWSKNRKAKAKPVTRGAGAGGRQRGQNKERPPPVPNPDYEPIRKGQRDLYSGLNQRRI

[5] = target: T3, human CD3 (CD3 epsilon as part of the T …); assay: flow cytometry on human pan T cells, antibody titrated 3-fold from 100 nM, AlexaFluor 647 anti-human secondary antibody, GEO Mean

Kd [2]: 0.024 nM
Kd [3]: 0.024 nM
B1: DL3B585 (bispecific antibody, human IgG1, lambda, L234A L235A)
scFv: DIQMTQSPSSLSASVGDRVTITCRASQGISNYLAWFQQKPGKAPKSLIYAASSLQSGVPSKFSGSGSGTDFTLTISSLQPEDFATYYCQQYNSYPYTFAQGTKLEIKGGSEGKSSGSGSESKSTGGSQVQLVQSGAEVKKPGASVKVSCKASGNTFTNYYIHWVRQAPGQGLEWMGIINPSGGSTSYAQKLQGRMTMTRDTSTSTVYMELSSLRSEDTAVYFCARQGPFIGDAFDIWGQGTMVTVSSEPKSSDKTHTCPPCPAPEAAGGPSVFLFPPKPKDTLMISRTPEVTCVVVSVSHEDPEVKFNWYVDGVEVHNAKTKPREEQYNSTYRVVSVLTVLHQDWLNGKEYKCKVSNKALPAPIEKTISKAKGQPREPQVYVLPPSREEMTKNQVSLLCLVKGFYPSDIAVEWESNGQPENNYLTWPPVLDSDGSFFLYSKLTVDKSRWQQGNVFSCSVMHEALHNHYTQKSLSLS
heavy: QVQLQQSGPRLVRPSQTLSLTCAISGDSVFNNNAAWSWIRQSPSRGLEWLGRTYYRSKWLYDYAVSVKSRITVNPDTSRNQFTLQLNSVTPEDTALYYCARGYSSSFDYWGQGTLVTVSSASTKGPSVFPLAPSSKSTSGGTAALGCLVKDYFPEPVTVSWNSGALTSGVHTFPAVLQSSGLYSLSSVVTVPSSSLGTQTYICNVNHKPSNTKVDKKVEPKSCDKTHTCPPCPAPEAAGGPSVFLFPPKPKDTLMISRTPEVTCVVVSVSHEDPEVKFNWYVDGVEVHNAKTKPREEQYNSTYRVVSVLTVLHQDWLNGKEYKCKVSNKALPAPIEKTISKAKGQPREPQVYVYPPSREEMTKNQVSLTCLVKGFYPSDIAVEWESNGQPENNYKTTPPVLDSDGSFALVSKLTVDKSRWQQGNVFSCSVMHEALHNHYTQKSLSLSPG
light: QSALTQPASVSGSPGQSITISCTGTSSNIGTYKFVSWYQQHPDKAPKVLLYEVSKRPSGVSSRFSGSKSGNTASLTISGLQAEDQADYHCVSYAGSGTLLFGGGTKLTVLGQPKAAPSVTLFPPSSEELQANKATLVCLISDFYPGAVTVAWKADSSPVKAGVETTTPSKQSNNKYAASSYLSLTPEQWKSHRSYSCQVTHEGSTVEKTVAPTECS
notes: DLL3 arm: DL3B279-LH-scFv-Fc; CD3 arm: CD3B376-Fab-Fc; also called CD3B376-Fab; DL3B279-LH-scFv
Cytotoxicity (% Lysis), SHP-77, whole PBMCs, 1:1 ET ratio, 30 nM [1]: 58.1%

Kd [3]: 0.033 nM
binding result [4]: binds
B2: D3C3B80 (bispecific antibody, human IgG1, lambda, L234A L235A)
scFv: DIQMTQSPSSLSASVGDRVTITCRASQGISNYLAWFQQKPGKAPKSLIYAASSLQSGVPSKFSGSGSGTDFTLTISSLQPEDFATYYCQQYNSYPYTFGQGTKLEIKGGSEGKSSGSGSESKSTGGSQVQLVQSGAEVKKPGASVKVSCKASGQTFTNYYIHWVRQAPGQGLEWMGIINPSGGSTSYAQKLQGRMTMTRDTSTSTVYMELSSLRSEDTAVYFCARQGPFIGDAFDIWGQGTTVTVSSEPKSSDKTHTCPPCPAPEAAGGPSVFLFPPKPKDTLMISRTPEVTCVVVSVSHEDPEVKFNWYVDGVEVHNAKTKPREEQYNSTYRVVSVLTVLHQDWLNGKEYKCKVSNKALPAPIEKTISKAKGQPREPQVYVLPPSREEMTKNQVSLLCLVKGFYPSDIAVEWESNGQPENNYLTWPPVLDSDGSFFLYSKLTVDKSRWQQGNVFSCSVMHEALHNHYTQKSLSLSPGK
heavy: QVQLQQSGPRLVRPSQTLSLTCAISGDSVFNNNAAWSWIRQSPSRGLEWLGRTYYRSKWLYDYAVSVKSRITVNPDTSRNQFTLQLNSVTPEDTALYYCARGYSSSFDYWGQGTLVTVSSASTKGPSVFPLAPSSKSTSGGTAALGCLVKDYFPEPVTVSWNSGALTSGVHTFPAVLQSSGLYSLSSVVTVPSSSLGTQTYICNVNHKPSNTKVDKKVEPKSCDKTHTCPPCPAPEAAGGPSVFLFPPKPKDTLMISRTPEVTCVVVSVSHEDPEVKFNWYVDGVEVHNAKTKPREEQYNSTYRVVSVLTVLHQDWLNGKEYKCKVSNKALPAPIEKTISKAKGQPREPQVYVYPPSREEMTKNQVSLTCLVKGFYPSDIAVEWESNGQPENNYKTTPPVLDSDGSFALVSKLTVDKSRWQQGNVFSCSVMHEALHNHYTQKSLSLSPGK
light: B1 light
notes: DLL3 arm: DL3B279 variant LH-scFv-Fc (ZW); CD3 arm: CD3B376-K477-Fab-Fc; also called CD3B376-Fab

Kd [2]: 0.031 nM
binding result [5]: binds
B3: DL3B587 (bispecific antibody, human IgG1, kappa, L234A L235A)
scFv: B1 scFv
heavy: EVQLVESGGGLVKPGGSLRLSCAASGFTFSRYNMNWVRQAPGKGLEWVSSISTSSNYIYYADSVKGRFTFSRDNAKNSLDLQMSGLRAEDTAIYYCTRGWGPFDYWGQGTLVTVSSASTKGPSVFPLAPSSKSTSGGTAALGCLVKDYFPEPVTVSWNSGALTSGVHTFPAVLQSSGLYSLSSVVTVPSSSLGTQTYICNVNHKPSNTKVDKKVEPKSCDKTHTCPPCPAPEAAGGPSVFLFPPKPKDTLMISRTPEVTCVVVSVSHEDPEVKFNWYVDGVEVHNAKTKPREEQYNSTYRVVSVLTVLHQDWLNGKEYKCKVSNKALPAPIEKTISKAKGQPREPQVYVYPPSREEMTKNQVSLTCLVKGFYPSDIAVEWESNGQPENNYKTTPPVLDSDGSFALVSKLTVDKSRWQQGNVFSCSVMHEALHNHYTQKSLSLSPG
light: DIQMTQSPSSLSASVGDRVTITCRARQSIGTAIHWYQQKPGKAPKLLIKYASESISGVPSRFSGSGSGTDFTLTISSLQPEDFATYYCQQSGSWPYTFGQGTKLEIKRTVAAPSVFIFPPSDEQLKSGTASVVCLLNNFYPREAKVQWKVDNALQSGNSQESVTEQDSKDSTYSLSSTLTLSKADYEKHKVYACEVTHQGLSSPVTKSFNRGEC
notes: DLL3 arm: DL3B279-LH-scFv-Fc; CD3 arm: CD3W245-Fab-Fc; also called CD3W245-Fab; DL3B279-LH-scFv
Cytotoxicity (% Lysis), SHP-77, whole PBMCs, 1:1 ET ratio, 30 nM [1]: 83.3%
